{"source": "patent US20050095613", "proteins": {"B1": {"name": "human CARD-13 (protein)", "chain": "MADKKPSKEDPVNMVKLLARNVLDGILDDLMENNVLNTEELRNLGKGLNFMVNNAGNLVDNITEKAQMAGKILKDRLLSHPKQLSLEYQRESEDQESEESSASSSSSTESEEENEESKDEERAASAHSMAVPPTGLPRWWQAASKMAADHFQDGGEPRVLCPGVPGLTDSKERNLGPCAPLEIQGAQPSGRLKLCPHAHFRELKTKRADEIYPVMEKEGRTRLALIICNKEFHYLLNRNGSELDLLGMQDLLETLGYSVVIEENLTAQEMETALRQFAARPEHQSSDSTSLVFMSHGILNGICGTKHWDQEPDVLHDDTIFEIFNNRNCRSLRDKPKVIIMQACRGSGAGIVWFTTDSGKASAETHGQLLQSSICNDAVTKAHVEKDFIAFKSSTPHNVSWRHEISGSVFISQIIYYFKEYSWSHHLEEIFRKVQRSFETPNVVTQLPTIERLSMTRYFYLFPGN"}}, "key": {"[1]": {"target": "T1, DEVD peptide substrate", "T1 chain": "DEVD"}, "[2]": {"target": "T2, DQMD peptide substrate", "T2 chain": "DQMD"}, "[3]": {"target": "T3, LEHD peptide substrate", "T3 chain": "LEHD"}, "[4]": {"target": "T4, WEHD peptide substrate", "T4 chain": "WEHD"}}}
{"protein": "B1", "values": [{"measurement": "cleavage of peptide substrate (caspase activity)", "setting": "[1]", "result": "it did not cleave DEVD peptide substrate or DQMD peptide substrate"}, {"measurement": "cleavage of peptide substrate (caspase activity)", "setting": "[2]", "result": "it did not cleave DEVD peptide substrate or DQMD peptide substrate"}, {"measurement": "cleavage of peptide substrate (caspase activity)", "setting": "[3]", "result": "It also had some activity against LEHD peptide substrate"}, {"measurement": "cleavage of peptide substrate (caspase activity)", "setting": "[4]", "result": "This purified CARD-13 cleaved WEHD peptide substrates, as does caspase-1"}]}
